Assay: soluble on expression in E. coli; label from the status in PepcDB or PDB records

Q: With “SINNGTFDEPIVNDQANNPDEWFIWQAGDYGISGARVSDYGVRDGYAYITIADPGTDTWHIQFNQWIGLYRGKTYTISFKAKADTPRPINVKILQNHDPWTNYFAQTVNLTADWQTFTFTYTHPDDADEVVQISFELGEGTATTIYFDDVTVSPQ” as the sequence, how does the “soluble on expression in E. coli” value read?
A: soluble

Q: For “AMGQTVTTPLSLTLGHWKDVERIAHNQSVDVKKRRWVTFCSAEWPTFNVGWPRDGTFNRDLITQVKIKVFSPGPHGHPDQVPYIVTWEALAFDPPPWVKP”, which “soluble on expression in E. coli” value is on record?
A: soluble

Q: With “MSLAEEISQTTAADTAVTEVRTEDSSQTSSQETAVTETTQSEGTASKQLTTPAVADQTTEPTDNEPISSSDGASSPYQVTDTTEPQQTLTPADSEPQAKADVQQAAAPKKEEINPVTNLEDMSHDTNGTWEVREDGIHSNAIGKGDSFLYSQSSGKNFVYATDVTFKQNSGAAALVFRSNNDSNNKNMYAVNVDIGGHKAKFWRWVDNKDIQLIDERDVVPTADNRYTLKVVAVNNWISYYVNDILMASTGDYVLQKADKGQNTVIPEGHFGLLNWNGDMVFQNTKFALLDDTTAPLIDNITVRSDRGNVEKQGQFFSEEPLHIQYVSNDASQVSLDIAKHNPAATVTVEDKTGRVYTDPSHLPVNVGANYFTVKSTVIDSFGRTVTLTYRINVHRRQNDEVYYNELYRDQYHYSVKDGWANDPNGLVYYNGVYHLFHQFYDDTKWGPMHWAHATSTDLIHWKEEPIAFYPDSNGYMFSGCVVVDEHNSSGLFKTAKGGLVAIITANGNGQRMELAYSEDEGKTWQKYDRIVADWSNDPLQNQDFRDPKVFHWNNQWFMVLAGGPLRIYSSNNLKDWKVESTYPDLHTECPDMYPIVANDGVLKWVLSRGGRFYKVGDFKQVDGKWTFIADDAYKDKDQVMNFGKDSYAAMTYYVHDFGTETRPTIPKLTEVNWMNTWEDYCNLVADTVGQDFNGTFNLNLDLGLINENGQYILTQTPVKAYDSLRDVNTALHFKDVTVDANNTLLKDFKGDSYEIVSHFRPDEKTTKVGFNLRVGNGQATKVIYDLQTETLSIDRSQSGTILSAAFAKVNSQHVTKNADGSIDLHIYVDRASVEVFSKNNTVAGANQIFPNPEAVGASIIVEGGKAQADISVYQMKTIWTDKKDTAKPVAMNTTTAKELALQVGQSQDLQVYLAPASVRQDVEWTISDPSLVRTSQKGNVLHLTAVKKGKLTITAISKENPSLSKTFTISITLNNFKTNLKGLQSVTGKWYVDDETLYDSNTSSNDYYMASQKPGFKEYDYDIDLKYQRGLINLFVASGNIDPSQAYSVQFGDSETVRLYRFAGDTIAEANMGKRINDDQYHHIKVTKTKNSIIISVDGQEVMSHNFDQVDSYFNDAYVGLGLWDGAVEFQNFFVTDHATTPKPDSDPTPQPDAPEALAQERELIDPATGVRVILQKGELASIVRVKVSHIETNDAHTPAVLNAKDYDLFNITPIDKNEKVVAITKPATVLLPIDAGKVVDKVVYLPNTDKEENLPFTIVSLTDSNGKKQSYVRFTAEHFSEYGLVYQAENQTNLKSKEKQDNVAISYPLNLEQEVKVSSISRKYAANKTADVNSVQQTEPSVMSSSPKATLPDTGDHKTDLSQLGVLAMIGSFLVEIAGYFKKRKDEGHHHHHH” as the sequence, how does the “soluble on expression in E. coli” value read?
A: soluble

Q: For “MPRPSQRLLSPEIITEAAMRMVDLTGDFTMPGLAERLKVRPSSLYNHVSGRAEIIELMRARMMAGIVVADPDGKWSETVAGLAREYRRNYAEHPRLIPLFTAHTVQSGVAFGLYNALAQAFSDGGFTPEEILHAITTVDSFVLGSALDLAAPEVVWATAPEANEAMLAALATSGPNPGRADAAFEFGLRTLIAGLVAQAPIEP”, which “soluble on expression in E. coli” value is on record?
A: not soluble

Q: Which “soluble on expression in E. coli” value does the source give for “MSLSIQRILFPTDFSDGARRAFPQAAHLADWHDAGLHILNVTGRHRHDHEETTANFPIATDTLTKWLRRPEKSVRGANWPDLEALPITQEQVESAEPAERILAYAEDEAIDLIVMGTHGRRGVDRMLFGSVTEEVVRKAPCPTLTVRADADVAPDQAVRRVLAPVDFSDASRSAVRHAKEIALTYGAEIDLLHVVEEPFYPPAYGLGETGFPTDKVIGSVEDELADLARSEVGYEHVMIEARTGEPSREILNYIDENEVDLTVIASHGRTGLDRMLIGSVAERVVRQSPTPVFVAKPDRAALVSSDAAEGHHHHHH” here?
A: not soluble

Q: Which “soluble on expression in E. coli” value does the source give for “MPEVKTEKPHLLDMGKPQLRMVDLNLLTVFDAVMQEQNITRAAHTLGMSQPAVSNAVARLKVMFNDELFVRYGRGIQPTARAFQLFGSVRQALQLVQNELPGSGFEPTSSERVFNLCVCSPLDNILTSQIYNRVEKIAPNIHVVFKASLNQNTEHQLRYQETEFVISYEEFRRPEFTSVPLFKDEMVLVASRKHPRISGPLLEGDVYNEQHAVVSLDRYASFSQPWYDTPDKQSSVAYQGMALISVLNVVSQTHLVAIAPRWLAEEFAESLDLQILPLPLKLNSRTCYLSWHEAAGRDKGHQWMEDLLVSVCKR” here?
A: not soluble

Q: For “MATEDAVREALATVNDPEINRPITELGMVKSVEIGADGAVAVAVYLTVSGCPMRDTITQRVSDAVSRVEGVTRVDVELDVMSDEQRKELATALRGGQTEREVPFAKPGSLTRVYAVASGKGGVGKSSVTVNLAASMAADGLKVGVVDADIYGHSVPRMLGADGRPTQVENMIMPPSAHGVKVISIGMFTPGNAPVVWRGPMLHRALQQFLADVYWGDLDVLLLDLPPGTGDIAISVAQLVPNAEILVVTTPQQAAAEVAERAGAIAVQTHQKIVGVVENMSGLPCPHCGEMVDVFGTGGGQTVADGLTRTTGASVPVLGAIPIDVRLREGGDEGKPVVLSDPDSPAGAALRSIAGKLGGRQRGLSGLSLGITPKNKFLEHHHHHH”, which “soluble on expression in E. coli” value is on record?
A: soluble

Q: Which “soluble on expression in E. coli” value does the source give for “MRWWLCILVLLLAVPAQALLMPGTRVVEEHHANPFEIDVSSIDNLGDIPVDDPSDGINWSFLYLPYPNCTSGTGDATFIAVSRGSSNNILIYLEGGGACSDFYTCGMGQYVDHASCNATPTATVTTLNPNPWVVSYHYRYGIFDRANPDNPFRDWTIVFVPYSTGDVHWGNRVVKYCYYNPYNLSQVDCSINFTVHHVGFVNAITAIRWAAEQGDFDKVVIAGSSAGGYGTIVHSFYAREIFGKPILAIDDAGPGLNVNQSNFTIQMLFGIETLNETWGAYDNLPDDAQDFLGDRDPIFFVDYFLDHYPDSRFALYEDQMDYTIGVFFNGYTEEQFRDLLLNKACEIKAMHRHNFFRYLPLGTEHTILAYPWFYEKNIHNYRVYEWVWDLIKGKKRDAVELDGVRGIYLACPPGIFAKLEHHHHHH” here?
A: not soluble

Q: Which “soluble on expression in E. coli” value does the source give for “MKTRINYAKASPEAFKAVMALENYVQSSGLEHRFIHLIKLRASIINGCAFCVDMHVKESRHDGLSEQWINLMSVWRESPVYTEQERALLGWVDAVTKIAETGAPDDAFETLRAHFSDEEIVKITVAIGAINTWNRIAVGFRSQHPVEAAAKAA” here?
A: soluble

Q: For “MGSDKIHHHHHHMKEPTIVKKEAFQAIGISITTTNEKEASTEGKIPGLWNRYFHEQIMHHIPNQQTKETFAFYSNYESDETGTYQFTIGMPVSSLEDVPENMTTLTIPAATYAVFTTRKGPVAEVVCEAWEYIWKWSKGNKRAFTIDFELYDEKATDPNNAQLDIYIALA”, which “soluble on expression in E. coli” value is on record?
A: not soluble

Q: For “MSLSNLPADSFRVGVSEDRNRRCRRTMEDAHSFVYDFAGVKGQGYFAVFDGHAGKHAAEWCGQNFHEYLLDGLLIEPDTPVPDLMNKTFHLVDKRLSHLAHAAGTSSGCTAVTAFLRVEEMDDNDSFRKGFTNPGLQPRGLWEGKGEDELESQTSLQPSSRRSSMGGGTGGQMGGASAPGVNGRTGSLARRLSSKKIRDFVKGLTGGMEKNFDEAITEDEGVISAADGTRVEAIEPKSEKGVRRVLYTANVGDARAVLCRGGKAVRLTYDHKGSDAQEAKRITDAGGFVMNNRVNGVLAVTRSLGDASMKEFVVGAPYTTETTLDEQDEFLIVACDGLWDVCSDQEAVEIVHLVTDPQEASKRLLDHAMSNFSTDNLSVMVVRFNHEGHHHHHH”, which “soluble on expression in E. coli” value is on record?
A: soluble

Q: With “MSSRIEQIIEEIEEYIDKDCKFQPLSSTKIIVNKEHLDELLRELRMKTPDEIKRYQKIISNRDAILADAKAKADAMIEEAQVQTTELVSEHEIMQQAYAQANEIVTQATAQAQEIIDNATMDANEIRMGAIQYTDDLLANAESIIGHTLDSYTTKYDGLINSLQECYDVVRTNRAELESPTPEEGQEFSGEA” as the sequence, how does the “soluble on expression in E. coli” value read?
A: not soluble

Q: With “MGSDKIHHHHHHMNILDGIKSLALKLGSKQDQTYYARGLSLTDDLMQIEALWRDNWIANKVCIKRSEDMVRNWRDIFSNDLKSEQLDEFTKLERRLKLRETLTKALQWSSLYGAVGLLVVTDTINITSPLQPTERLKRLIILPKWKISPTGQRDDDVFSPNFGRYSEYTITGGTQSVSVHHSRLLIINANDAPLSDNDIWGVSDLEKIIDVLKRFDSASANVGDLIFESKIDIFKIAGLSDKISAGLENDVAHVISAVQSIKSATNSLLLDAENEYDRKELSFGGLKDLLTEFRNAVAGAADMPVTILFGQSVSGLASGDEDIQNYHESIHRLQETRLRPVLEVLDTLLCNELFGGQPDDWWFEFLPLTVVKQEQQVNMLNTFATAANTLIQNGVVNEYQVANELRESGLFANISADDIEEMKNANELARNFEEPEGESTQVQASEDE” as the sequence, how does the “soluble on expression in E. coli” value read?
A: not soluble

Q: Which “soluble on expression in E. coli” value does the source give for “MSLSNGAPGTRIASAVGAFDVSRRASLTRGAGEAVERFALVPVPADSEHLLARNGSADPQIDFVSAGLGHVSALACDVPWYRAVDLLTGKPTQVPAPVVDYTPGRGESNSWDAFFDPSPNGAASGPSEAFAQTSAIAEVMERDAFLAAWRHKIPLQKFDAKSMPVAVRQGAEARGLSLLLVAARAAGVEPTLAFIPNNGSPLLTAVCIITEEKGPVCYGAVGLKAASDPVSALKGALQEGLQIRELFLTRAHSADPASASPVSAPSVATVTDDDSRAHFWTTAPAIAELRRWVGSFQPSNFPSKQPEPDLDALVKHLAGRNVRSHWVNLTHRLPAAIRELGWVAGKAVCPGAVPLTMDETKELFVMPGSEGHHHHHH” here?
A: soluble

Q: Which “soluble on expression in E. coli” value does the source give for “SNAKELIQNIIEESYTDSQFTLSVLSEKLDLSSGYLSIMFKKNFGIPFQDYLLQKRMEKAKLLLLTTELKNYEIAEQVGFEDVNYFITKFKKYYQITPKQYRE” here?
A: soluble

Q: With “MGSDKIHHHHHHMRDSTQLPVTRRMLPSLYQSICLILCSQNLSGINLSGISPSSISLGPSTLFRHTRLSQRLAKFQIPRPIKHQSQRFSIFALACFVAATLSGCANSLETCARTELKLTWAEPAELQATVTILSSDEFEGRKTQTQGAAKSRDYIKQQFESLNLQPWGADFIVPFEYQTFFTQETGANVVATAMATEPTNRWRIIVAHYDHLGMSGSKIYHGADDNASGVAAMLAIAKHWQQQFALQPNTLPKVNLMFVATDAEEPGLYGSIALVEQLKTRLPEATFELMINLDMVSHPGRPYGIYLEGSRNFTQFNQFKSLLNQQNRLCIKLTHPKPVGRSIQSTDWLRASDHYPFHKANIPWLYFGVPTHPQYHTPEDTVATIDITFLAAVTESAFELLQLNAEYLKN” as the sequence, how does the “soluble on expression in E. coli” value read?
A: not soluble

Q: Which “soluble on expression in E. coli” value does the source give for “MSLTNLLIRNVRPSADAALDILIEGDRIARIGPSLDAPAGCAIEDGAGALALPGLVEGHTHLDKTHWGMPWYRNQVGPRLVDRIENERHYRATSGHDAGAASLALARAFLAAGTTRIRTHVDIDTEAGLRHLHGVLATRETLRGEVDIQIVAFPQSGVLKRPGTDVLLSDALAAGADLLGGLDPCAIEGDPVEAVDVLFAIAERHGRGLDLHLHERGSMGAYSLDLILQRTATHGMQGKVTISHGFCLGDIGERERDALLARMAELGVGLVTTAPAAVPVPPVAACRAAGVTVIGGNDGVRDTWTPYGSPDMLERAMLIGMRNDFRRDDALEVALDCVTHGAARGCGFGDYGLQPGSRADVVLVDALTFAEAVVARPVRRLVVSSGKIVARNGALVEGHHHHHH” here?
A: soluble
